Our source for the Kd values is doi:10.1101/2021.09.14.460262 (bioRxiv, 2021).

In experiment [1] the target is mVDAC1 labelled with Alexa Fluor 532 C5-maleimide (UniProt Q60932). Description: MST.
For experiment [2], the target named is mVDAC1 labelled with Alexa Fluor 532 C5-maleimide (UniProt Q60932 14-296, Alexa Fluor 532 C5-maleimide label). Description: MST.

In general, Kd refers to the equilibrium constant for the complex coming apart. Higher therefore signals weaker binding.

Chain of mVDAC1 labelled with Alexa Fluor 532 C5-maleimide (UniProt Q60932 14-296, Alexa Fluor 532 C5-maleimide label) (Q60932 14-296): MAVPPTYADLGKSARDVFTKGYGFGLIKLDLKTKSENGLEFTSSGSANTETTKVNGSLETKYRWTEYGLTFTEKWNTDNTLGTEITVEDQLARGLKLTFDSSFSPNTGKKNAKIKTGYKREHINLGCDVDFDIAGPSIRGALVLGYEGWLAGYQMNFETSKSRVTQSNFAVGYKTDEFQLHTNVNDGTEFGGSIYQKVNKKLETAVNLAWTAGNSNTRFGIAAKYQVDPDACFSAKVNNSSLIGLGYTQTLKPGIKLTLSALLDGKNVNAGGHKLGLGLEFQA
Chain of mVDAC1 labelled with Alexa Fluor 532 C5-maleimide (UniProt Q60932) (Q60932 14-296): as above

“caspase 8-cleaved recombinant BID (His-rtBID) (domain or fragment)” had a dissociation constant Kd in experiment [1] of 37.1 µM.

B1: recombinant full length His6-BID (natural protein, UniProt P70444 1-195, looked up)
chain: MDSEVSNGSGLGAEHITDLLVFGFLQSSGCTRQELEVLGRELPVQAYWEADLEDELQTDGSQASRSFNQGRIEPDSESQEEIIHNIARHLAQIGDEMDHNIQPTLVRQLAAQFMNGSLSEEDKRNCLAKALDEVKTAFPRDMENDKAMLIMTMLLAKKVASHAPSLLRDVFHTTVNFINQNLFSYVRNLVRNEMD
On to B1, for which the affinity in experiment [2], expressed as Kd, was 1420 µM.
